How the values were obtained:
Experiment in all cases: anti-FLAG co-IP LC-MS, exp 4, +Dox +IFNG
Filamin-C (Homo sapiens) = Filamin-C (Homo sapiens) (UniProt Q14315)
[1] = biological target: Junctional sarcoplasmic reticulum protein 1 (Homo sapiens) (UniProt Q96MG2)
[2] = biological target: AP-2 complex subunit mu (Homo sapiens) (UniProt E9PFW3)
[3] = biological target: Endonuclease domain-containing 1 protein (Homo sapiens) (UniProt O94919)
[4] = biological target: cAMP-dependent protein kinase type I-alpha regulatory subunit (Homo sapiens) (UniProt P10644)
[5] = biological target: 4F2 cell-surface antigen heavy chain (Homo sapiens) (UniProt P08195)
[6] = biological target: Transportin-1 (Homo sapiens) (UniProt Q92973)
[7] = biological target: Alpha-actinin-1 (Homo sapiens) (UniProt P12814)
[8] = biological target: Nucleosome assembly protein 1-like 1 (Homo sapiens) (UniProt P55209)
[9] = biological target: Prostate tumor-overexpressed gene 1 protein (Homo sapiens) (UniProt Q86YD1)
[10] = biological target: Alpha-enolase (Homo sapiens) (UniProt P06733)
[11] = biological target: Stress-70 protein, mitochondrial (Homo sapiens) (UniProt P38646)
[12] = biological target: 40S ribosomal protein S4, X isoform (Homo sapiens) (UniProt P62701)
Talin-1 (Homo sapiens) = Talin-1 (Homo sapiens) (UniProt Q9Y490)
[13] = biological target: 60 kDa heat shock protein, mitochondrial (Homo sapiens) (UniProt P10809)
[14] = biological target: Tubulin beta-2A chain (Homo sapiens) (UniProt Q13885)
[15] = biological target: 60S acidic ribosomal protein P0 (Homo sapiens) (UniProt P05388)
Nestin (Homo sapiens) = Nestin (Homo sapiens) (UniProt P48681)
[16] = biological target: Histone acetyltransferase type B catalytic subunit (Homo sapiens) (UniProt O14929)
[17] = biological target: Heterogeneous nuclear ribonucleoprotein K (Homo sapiens) (UniProt P61978)
[18] = biological target: Phosphate carrier protein, mitochondrial (Homo sapiens) (UniProt Q00325)
[19] = biological target: 14-3-3 protein sigma (Homo sapiens) (UniProt P31947)
[20] = biological target: ADP/ATP translocase 2 (Homo sapiens) (UniProt P05141)
[21] = biological target: Elongation factor 1-delta (Homo sapiens)
[22] = biological target: WD repeat-containing protein 1 (Homo sapiens) (UniProt O75083)
[23] = biological target: 40S ribosomal protein S8 (Homo sapiens) (UniProt P62241)
[24] = biological target: T-complex protein 1 subunit theta (Homo sapiens) (UniProt P50990)
Drebrin (Homo sapiens) = Drebrin (Homo sapiens) (UniProt Q16643)
[25] = biological target: Procollagen-lysine,2-oxoglutarate 5-dioxygenase 2 (Homo sapiens) (UniProt O00469)
[26] = biological target: 40S ribosomal protein S3 (Homo sapiens) (UniProt P23396)
Desmin (Homo sapiens) = Desmin (Homo sapiens) (UniProt P17661)
[27] = biological target: Heat shock cognate 71 kDa protein (Homo sapiens) (UniProt P11142)
[28] = biological target: Tubulin beta-6 chain (Homo sapiens) (UniProt Q9BUF5)
[29] = biological target: Guanine nucleotide-binding protein G(i) subunit alpha-2 (Homo sapiens) (UniProt P04899)
[30] = biological target: Histone-binding protein RBBP7 (Homo sapiens) (UniProt Q16576)
[31] = biological target: Tubulin beta-4B chain (Homo sapiens) (UniProt P68371)
[32] = biological target: Calpain-2 catalytic subunit (Homo sapiens) (UniProt P17655)

Sequence of 14-3-3 protein sigma (Homo sapiens) (P31947 whole entry): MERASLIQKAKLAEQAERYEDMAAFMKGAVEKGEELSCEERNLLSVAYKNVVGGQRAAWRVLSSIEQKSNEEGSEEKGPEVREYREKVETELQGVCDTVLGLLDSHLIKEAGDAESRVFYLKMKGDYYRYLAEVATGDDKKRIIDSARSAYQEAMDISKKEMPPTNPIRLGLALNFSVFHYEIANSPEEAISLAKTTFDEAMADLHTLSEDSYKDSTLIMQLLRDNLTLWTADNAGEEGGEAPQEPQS
Sequence of AP-2 complex subunit mu (Homo sapiens) (E9PFW3 entry or part of it limits assumed, form in doubt, one chain of several): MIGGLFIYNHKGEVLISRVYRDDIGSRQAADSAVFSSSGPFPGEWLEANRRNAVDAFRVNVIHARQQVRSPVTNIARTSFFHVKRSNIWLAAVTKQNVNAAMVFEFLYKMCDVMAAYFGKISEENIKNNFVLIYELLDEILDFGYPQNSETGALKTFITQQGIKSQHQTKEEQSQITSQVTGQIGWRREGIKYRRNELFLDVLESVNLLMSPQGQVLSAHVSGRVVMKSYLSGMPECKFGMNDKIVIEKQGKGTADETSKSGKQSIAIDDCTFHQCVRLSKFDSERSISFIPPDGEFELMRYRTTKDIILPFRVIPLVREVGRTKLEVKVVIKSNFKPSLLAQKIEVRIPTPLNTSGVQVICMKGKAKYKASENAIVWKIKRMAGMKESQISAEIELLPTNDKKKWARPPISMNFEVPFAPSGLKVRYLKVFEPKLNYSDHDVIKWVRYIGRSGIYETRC
Sequence of Tubulin beta-6 chain (Homo sapiens) (Q9BUF5 whole entry): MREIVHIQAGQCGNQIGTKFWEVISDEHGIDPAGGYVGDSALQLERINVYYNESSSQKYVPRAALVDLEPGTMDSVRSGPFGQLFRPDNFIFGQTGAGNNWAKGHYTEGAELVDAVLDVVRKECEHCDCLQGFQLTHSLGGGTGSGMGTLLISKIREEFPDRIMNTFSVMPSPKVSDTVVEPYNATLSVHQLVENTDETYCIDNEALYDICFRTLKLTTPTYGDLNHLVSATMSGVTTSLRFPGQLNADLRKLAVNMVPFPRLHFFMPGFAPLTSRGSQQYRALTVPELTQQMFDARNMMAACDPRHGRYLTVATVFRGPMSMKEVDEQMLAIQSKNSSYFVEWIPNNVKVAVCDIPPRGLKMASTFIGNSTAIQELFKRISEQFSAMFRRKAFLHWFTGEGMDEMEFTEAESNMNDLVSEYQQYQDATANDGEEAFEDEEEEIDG
Sequence of Elongation factor 1-delta (Homo sapiens) (chain, as listed by the source mutant limits assumed, form in doubt): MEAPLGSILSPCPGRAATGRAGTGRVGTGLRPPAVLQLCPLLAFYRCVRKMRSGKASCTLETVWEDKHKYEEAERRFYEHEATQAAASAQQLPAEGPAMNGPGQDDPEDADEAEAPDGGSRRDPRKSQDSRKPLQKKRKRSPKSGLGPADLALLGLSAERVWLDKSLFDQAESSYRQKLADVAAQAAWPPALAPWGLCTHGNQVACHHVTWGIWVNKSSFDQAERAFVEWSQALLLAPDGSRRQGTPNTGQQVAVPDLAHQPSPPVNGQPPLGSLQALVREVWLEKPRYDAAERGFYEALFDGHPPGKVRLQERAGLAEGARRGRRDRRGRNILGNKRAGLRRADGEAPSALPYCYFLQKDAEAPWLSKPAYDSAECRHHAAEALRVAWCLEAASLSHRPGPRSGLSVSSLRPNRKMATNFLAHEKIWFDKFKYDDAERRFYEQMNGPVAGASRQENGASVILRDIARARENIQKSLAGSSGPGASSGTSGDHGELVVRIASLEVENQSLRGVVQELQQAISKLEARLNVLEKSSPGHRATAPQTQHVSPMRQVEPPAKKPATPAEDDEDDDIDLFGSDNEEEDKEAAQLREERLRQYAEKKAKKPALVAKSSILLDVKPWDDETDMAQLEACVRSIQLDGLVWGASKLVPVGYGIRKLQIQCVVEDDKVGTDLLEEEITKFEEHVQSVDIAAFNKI
Sequence of Prostate tumor-overexpressed gene 1 protein (Homo sapiens) (Q86YD1 whole entry): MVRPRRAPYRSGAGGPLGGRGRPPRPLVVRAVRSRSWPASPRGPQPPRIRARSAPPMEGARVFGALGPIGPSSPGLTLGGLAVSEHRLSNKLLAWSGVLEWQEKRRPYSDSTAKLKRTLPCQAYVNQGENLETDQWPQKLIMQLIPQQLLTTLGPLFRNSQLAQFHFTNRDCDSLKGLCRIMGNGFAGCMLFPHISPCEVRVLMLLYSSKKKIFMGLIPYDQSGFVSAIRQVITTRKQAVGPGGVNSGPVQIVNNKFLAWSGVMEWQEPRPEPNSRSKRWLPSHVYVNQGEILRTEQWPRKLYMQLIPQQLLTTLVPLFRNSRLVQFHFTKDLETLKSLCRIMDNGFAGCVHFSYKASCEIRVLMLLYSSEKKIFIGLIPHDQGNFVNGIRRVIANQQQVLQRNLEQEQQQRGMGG
Sequence of Alpha-actinin-1 (Homo sapiens) (P12814 whole entry): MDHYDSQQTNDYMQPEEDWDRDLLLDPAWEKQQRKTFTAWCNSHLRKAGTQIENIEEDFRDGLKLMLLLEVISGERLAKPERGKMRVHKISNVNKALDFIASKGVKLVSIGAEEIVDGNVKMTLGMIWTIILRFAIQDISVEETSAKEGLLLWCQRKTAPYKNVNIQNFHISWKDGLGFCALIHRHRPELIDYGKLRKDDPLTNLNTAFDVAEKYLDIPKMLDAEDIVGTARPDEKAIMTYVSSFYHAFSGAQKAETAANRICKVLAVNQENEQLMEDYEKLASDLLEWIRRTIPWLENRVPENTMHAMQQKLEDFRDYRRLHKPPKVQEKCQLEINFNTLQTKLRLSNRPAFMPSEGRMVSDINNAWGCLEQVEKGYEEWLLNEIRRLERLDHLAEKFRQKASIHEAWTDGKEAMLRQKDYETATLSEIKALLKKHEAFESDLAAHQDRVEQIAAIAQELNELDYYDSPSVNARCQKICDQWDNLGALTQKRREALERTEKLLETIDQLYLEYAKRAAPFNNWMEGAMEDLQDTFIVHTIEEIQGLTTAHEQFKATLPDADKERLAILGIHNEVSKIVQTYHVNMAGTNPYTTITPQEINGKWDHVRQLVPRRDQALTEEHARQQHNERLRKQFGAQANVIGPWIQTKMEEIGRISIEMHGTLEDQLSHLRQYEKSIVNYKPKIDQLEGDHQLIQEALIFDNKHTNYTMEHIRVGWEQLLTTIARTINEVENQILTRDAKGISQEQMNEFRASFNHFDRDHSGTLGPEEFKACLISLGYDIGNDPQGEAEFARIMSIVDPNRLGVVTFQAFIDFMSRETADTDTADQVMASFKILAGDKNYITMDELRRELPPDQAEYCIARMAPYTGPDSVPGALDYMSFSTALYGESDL
Sequence of Drebrin (Homo sapiens) (Q16643 2-649 limits assumed): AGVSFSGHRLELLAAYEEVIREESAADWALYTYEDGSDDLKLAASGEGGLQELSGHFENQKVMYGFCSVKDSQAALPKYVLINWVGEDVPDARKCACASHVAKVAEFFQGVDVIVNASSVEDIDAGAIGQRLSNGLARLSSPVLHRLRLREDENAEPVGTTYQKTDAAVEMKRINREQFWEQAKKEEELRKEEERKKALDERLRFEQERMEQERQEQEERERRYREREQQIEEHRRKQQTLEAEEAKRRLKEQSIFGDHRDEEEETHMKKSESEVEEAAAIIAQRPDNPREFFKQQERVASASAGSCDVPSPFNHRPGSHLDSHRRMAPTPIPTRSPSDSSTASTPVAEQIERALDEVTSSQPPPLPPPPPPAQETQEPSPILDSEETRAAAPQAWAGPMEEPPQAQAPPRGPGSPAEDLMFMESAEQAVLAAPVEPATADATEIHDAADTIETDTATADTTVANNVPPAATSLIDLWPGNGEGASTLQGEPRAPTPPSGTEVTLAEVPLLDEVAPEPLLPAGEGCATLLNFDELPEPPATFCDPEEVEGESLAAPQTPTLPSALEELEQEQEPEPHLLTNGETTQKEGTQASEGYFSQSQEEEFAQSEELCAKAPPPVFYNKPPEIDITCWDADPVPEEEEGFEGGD
Sequence of Guanine nucleotide-binding protein G(i) subunit alpha-2 (Homo sapiens) (P04899 2-355 limits assumed): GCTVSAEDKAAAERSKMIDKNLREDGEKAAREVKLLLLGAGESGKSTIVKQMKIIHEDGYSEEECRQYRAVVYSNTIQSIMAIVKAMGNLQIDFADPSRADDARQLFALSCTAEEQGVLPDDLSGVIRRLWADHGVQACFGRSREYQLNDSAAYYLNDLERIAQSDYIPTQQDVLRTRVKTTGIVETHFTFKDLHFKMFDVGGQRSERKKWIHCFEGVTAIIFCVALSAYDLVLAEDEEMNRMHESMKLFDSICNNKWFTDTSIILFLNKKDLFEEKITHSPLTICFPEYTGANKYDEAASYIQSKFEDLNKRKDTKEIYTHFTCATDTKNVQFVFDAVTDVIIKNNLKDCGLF
Sequence of Desmin (Homo sapiens) (P17661 2-470 limits assumed): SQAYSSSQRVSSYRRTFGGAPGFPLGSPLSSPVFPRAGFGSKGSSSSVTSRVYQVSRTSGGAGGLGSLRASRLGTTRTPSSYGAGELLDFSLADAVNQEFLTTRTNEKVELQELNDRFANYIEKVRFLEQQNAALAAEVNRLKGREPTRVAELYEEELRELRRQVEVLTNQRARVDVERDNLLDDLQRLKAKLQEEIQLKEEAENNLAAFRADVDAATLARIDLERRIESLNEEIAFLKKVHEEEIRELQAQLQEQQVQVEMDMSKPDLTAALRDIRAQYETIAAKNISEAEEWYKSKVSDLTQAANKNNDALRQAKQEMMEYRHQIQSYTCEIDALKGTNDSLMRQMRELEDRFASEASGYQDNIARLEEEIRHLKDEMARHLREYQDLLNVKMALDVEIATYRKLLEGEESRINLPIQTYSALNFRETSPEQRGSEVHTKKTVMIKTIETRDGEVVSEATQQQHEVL
Sequence of Junctional sarcoplasmic reticulum protein 1 (Homo sapiens) (Q96MG2 whole entry): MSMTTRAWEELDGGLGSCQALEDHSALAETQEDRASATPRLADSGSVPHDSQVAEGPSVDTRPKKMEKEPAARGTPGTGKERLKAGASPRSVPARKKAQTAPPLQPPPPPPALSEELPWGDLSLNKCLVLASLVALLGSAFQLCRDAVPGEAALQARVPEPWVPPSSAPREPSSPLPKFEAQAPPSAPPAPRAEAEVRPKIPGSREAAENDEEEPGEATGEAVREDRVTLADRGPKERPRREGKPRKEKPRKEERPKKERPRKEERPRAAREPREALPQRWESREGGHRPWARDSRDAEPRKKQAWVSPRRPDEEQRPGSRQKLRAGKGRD

**Q.** With i3XFLAG-NLS-CTDaa154-424 as the substance, how does the PSMs (Filamin-C (Homo sapiens)) read?
**A.** 12 PSMs

**Q.** And the PSMs [1]?
**A.** 3 PSMs

**Q.** And the PSMs [2]?
**A.** 3 PSMs

**Q.** What about the PSMs [3] of the same substance?
**A.** 2 PSMs

**Q.** What about the PSMs [4] of the same substance?
**A.** 3 PSMs

**Q.** What about the PSMs [5] of the same substance?
**A.** 2 PSMs

**Q.** And the PSMs [6]?
**A.** 3 PSMs

**Q.** What about the PSMs [7] of the same substance?
**A.** 34 PSMs

**Q.** What about the PSMs [8] of the same substance?
**A.** 3 PSMs

**Q.** And the PSMs [9]?
**A.** 2 PSMs

**Q.** And the PSMs [10]?
**A.** 2 PSMs

**Q.** What about the PSMs [11] of the same substance?
**A.** 7 PSMs

**Q.** And the PSMs [12]?
**A.** 3 PSMs

**Q.** And the PSMs (Talin-1 (Homo sapiens))?
**A.** 3 PSMs

**Q.** What about the PSMs [13] of the same substance?
**A.** 5 PSMs

**Q.** What about the PSMs [14] of the same substance?
**A.** 99 PSMs

**Q.** What about the PSMs [15] of the same substance?
**A.** 36 PSMs

**Q.** What about the PSMs (Nestin (Homo sapiens)) of the same substance?
**A.** 2 PSMs

**Q.** And the PSMs [16]?
**A.** 9 PSMs

**Q.** And the PSMs [17]?
**A.** 6 PSMs

**Q.** And the PSMs [18]?
**A.** 2 PSMs

**Q.** What about the PSMs [19] of the same substance?
**A.** 6 PSMs

**Q.** What about the PSMs [20] of the same substance?
**A.** 6 PSMs

**Q.** What about the PSMs [21] of the same substance?
**A.** 11 PSMs

**Q.** What about the PSMs [22] of the same substance?
**A.** 11 PSMs

**Q.** And the PSMs [23]?
**A.** 2 PSMs

**Q.** What about the PSMs [24] of the same substance?
**A.** 3 PSMs

**Q.** What about the PSMs (Drebrin (Homo sapiens)) of the same substance?
**A.** 33 PSMs

**Q.** And the PSMs [25]?
**A.** 7 PSMs

**Q.** And the PSMs [26]?
**A.** 11 PSMs

**Q.** What about the PSMs (Desmin (Homo sapiens)) of the same substance?
**A.** 12 PSMs

**Q.** And the PSMs [27]?
**A.** 105 PSMs

**Q.** What about the PSMs [28] of the same substance?
**A.** 46 PSMs

**Q.** What about the PSMs [29] of the same substance?
**A.** 11 PSMs

**Q.** What about the PSMs [30] of the same substance?
**A.** 5 PSMs

**Q.** And the PSMs [31]?
**A.** 100 PSMs

**Q.** And the PSMs [32]?
**A.** 3 PSMs
